Results from US20250195607A1 (BIOLINERX, published 2025).
Bridges are numbered along the chain shown (N, C = ends). [ ]: non-standard residue; d: D form. The star is where a group is joined. 2Nal = N[C@@H](Cc1ccc2ccccc2c1)C(=O)O; Benzoyl(4-F) = O=C(c1ccc(F)cc1)*; Cit = NC(=O)NCCC[C@H](N)C(=O)O

Target: CXCR4 chemokine receptor (mouse, UniProt P70658 1-359)
Experiment: cell-based or functional assay

CXCR4 chemokine receptor, sequence (P70658 whole entry): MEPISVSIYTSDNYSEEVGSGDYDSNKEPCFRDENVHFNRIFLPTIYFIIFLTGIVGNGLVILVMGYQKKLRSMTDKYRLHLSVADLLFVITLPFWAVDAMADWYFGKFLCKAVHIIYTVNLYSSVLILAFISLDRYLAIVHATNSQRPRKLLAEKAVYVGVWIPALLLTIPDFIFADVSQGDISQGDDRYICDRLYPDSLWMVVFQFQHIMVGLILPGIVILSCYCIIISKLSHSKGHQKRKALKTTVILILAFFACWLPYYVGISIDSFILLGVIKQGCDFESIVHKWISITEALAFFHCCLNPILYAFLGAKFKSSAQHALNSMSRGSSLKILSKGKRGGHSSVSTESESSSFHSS

Fold increase in neutrophil number in peripheral blood (mice, 5 mg/kg s.c., 2 hours after injection, flow cytometry); BL-8040 composition of Example 1: 9.9 fold
Fold increase in neutrophil number in peripheral blood (mice, 5 mg/kg s.c., 2 hours after injection, flow cytometry); BL-8040 composition of Reference Example 1: 5.6 fold
B1: BL-8040 (4F-benzoyl-TN14003; 4-fluoro-benzoyl-Arg-Arg-Nal-Cys-Tyr-Cit-Lys-DLys-Pro-Tyr-Arg-Cit-Cys-Arg-NH2), cyclic peptide (peptide)
peptide: {Benzoyl(4-F)}-RR[2Nal]CY[Cit]K[dK]PYR[Cit]CR-NH2
modifications: disulfide 4-13 (inferred)
